In assay [1] the target is T1, N-terminal fusion protein linking the extracellular N terminus of human CXCR6 and the Fc region of human IgG1 (human, not fully specified).
T1 construct: not shown: Fc region of human IgG1
T1 chain: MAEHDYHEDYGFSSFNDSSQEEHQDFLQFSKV
The assay is described as follows: antibody pre-incubated with N-terminus-Fc fusion before staining human CXCR6 cells, flow cytometry (FIG. 12B). How it is done:
Three candidate antibodies that bind only to human CXCR6 and three candidate antibodies that bind to both human and cyno CXCR6 were further analyzed to locate their epitope residues. An N-terminal fusion protein was generated by linking the extracellular N terminus of human CXCR6 and the Fc region of human IgG1. Prior to staining cells over-expressing human CXCR6, the candidate antibodies (1 μg/ml) were pre-incubated with the N-terminal fusion protein (25 μg/ml) for 15 minutes at room temperature. A commercial antibody (R&D system, Minneapolis, MN) that only binds to human CXCR6 but not cyno- or mouse-CXCR6, was used as a control antibody.
In general terms: In flow cytometry, cells or beads pass a laser one at a time.

Assay [2] deals with T2, cynomolgus monkey CXCR6 (cynomolgus monkey, UniProt Q9BDS6 1-343).
T2 construct: also called cyno-CXCR6; cyno monkey CXCR6
T2 sequence: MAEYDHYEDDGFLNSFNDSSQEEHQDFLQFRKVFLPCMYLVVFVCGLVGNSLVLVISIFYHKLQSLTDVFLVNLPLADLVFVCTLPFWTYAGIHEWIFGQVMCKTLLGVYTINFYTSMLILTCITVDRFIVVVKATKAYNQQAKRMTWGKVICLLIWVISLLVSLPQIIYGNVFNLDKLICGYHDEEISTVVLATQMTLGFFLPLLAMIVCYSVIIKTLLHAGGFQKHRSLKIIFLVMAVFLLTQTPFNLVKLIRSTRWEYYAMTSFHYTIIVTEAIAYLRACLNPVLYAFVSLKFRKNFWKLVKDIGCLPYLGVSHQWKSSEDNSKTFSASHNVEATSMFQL
Put plainly: screening on cells overexpressing CXCR6, one single concentration, yes/no.

In assay [3] the target is T3, human CXCR6 (human, UniProt O00574 1-342).
T3 construct: also called hu-CXCR6; wild type human CXCR6
The assay is described as above.

The target of assay [4] is T2, cynomolgus monkey CXCR6. Put plainly: description of the chimeric clones used in the ADCC example.
The target in assay [5] is T3, human CXCR6. Put plainly: flow cytometry on human CXCR6 over-expressing cells pre-incubated with competitor huCXCL-16 at 1,500 ng/ml (FIG. 16). How it is done:
(§1) After washing and staining with secondary antibody, cells were analyzed by flow cytometry. The ED₅₀ for huCXCL-16 binding to human CXCR6 is 10-50 ng/ml. Thus, 1,500 ng/ml huCXCL-16 is an overwhelming concentration for competing with chimeric Genovac2-C1. In the absence of huCXCL-16, the ED₅₀ for chimeric Genovac2-C1 binding to human CXCR6 was 0.5 μg/ml (FIG. 16). In the presence of huCXCL-16 (1,500 ng/ml), the ED₅₀ for chimeric Genovac2-C1 binding to human CXCR6 was 1.5 μg/ml (FIG. 16). Accordingly, the human/mouse chimeric mAb retains the binding specificity and affinity in the presence of CXCL-16.

For assay [6], the target named is T3, human CXCR6. Put plainly: flow cytometry on human CXCR6 over-expressing cells, no huCXCL-16 (FIG. 16). How it is done: as §1

Usually EC50 stands for the concentration at which the effect is half-maximal.

T3 sequence (O00574 whole entry): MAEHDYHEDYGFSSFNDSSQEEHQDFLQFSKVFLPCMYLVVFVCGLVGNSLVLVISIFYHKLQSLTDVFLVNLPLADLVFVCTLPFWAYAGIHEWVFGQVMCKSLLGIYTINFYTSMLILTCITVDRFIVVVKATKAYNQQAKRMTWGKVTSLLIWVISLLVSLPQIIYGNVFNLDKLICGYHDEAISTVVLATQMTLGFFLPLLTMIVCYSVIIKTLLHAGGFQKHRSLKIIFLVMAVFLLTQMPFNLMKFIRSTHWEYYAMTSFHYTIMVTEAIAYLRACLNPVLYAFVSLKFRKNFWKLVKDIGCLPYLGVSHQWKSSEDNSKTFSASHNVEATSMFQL

B1: Beacon2-G5 (antibody, V domains shown)
VH: EVQLVESGGDLVKPGGSLKLSCAASGFTFSSYGMSWVRQTPDKRLEWVATISSRGSYTYYPDSVKGRLTISRENAKNTLSLQMSSLKSEDTAMYYCARRVFPYWFFDVWGAGTTVTVSS
VL: DIVMTQSHKFMSTSVGDRVSITCKASQDVSTAVAWYQQKSGQSPKLLIYSASYRYTGVPDRFTGSGSGTDFTFTISSVQAEDLAVYYCQQHYTTPYTFGGGTKLEIK
notes: Mouse-derived
For the molecule B1, the figures for the binding result (in assay [1]; with cynomolgus monkey CXCR6 [2]; with human CXCR6 [3]) were “no binding”, “binds” and “binds”, respectively.

B2: chimeric Genovac2-C1 (antibody, V domains shown)
VH: DVKLVESGGGLVKPGGSLKLSCAASGFTFSSYTMSWVRQTPEKRLEWVATISSGGSYTYYPDSVKGRFTISRDNAKNTLYLQMSSLKSEDTAMYYCTRGGGNYPFWFFDVWGAGTTVTVSS
VL: DIQMTQSPASLSASVGETVTITCRASENIYSYLAWYQQKQGKSPQLLVYNAKTLAEGVPSRFSGSGSGTQFSLKIKSLQPEDFGSYYCQHHYGIPRTFGGGTKVETK
notes: also called Genovac2-C1 human chimeric mAb; human/mouse chimeric mAb
In the case of B2, the binding result with cynomolgus monkey CXCR6 [4] is on record as “binds”. Further, the EC50 with human CXCR6 [5] came out at 1.5 µg/mL; in the assay with human CXCR6 [6], 0.5 µg/mL.

The values above are taken from patent US20240239907A1 (EDELWEISS IMMUNE, published 2024).
